To fix the notation:
B1: Ly513 (bispecific antibody, human IgG2, kappa)
heavy: QVTLKESGPALVKPTQTLTLTCTFSGFSLSTSGTCVSWIRQPPGKALEWLATICWEDSKGYNPSLKSRLTISKDTSKNQAVLTMTNMDPVDTATYYCARREDSGYFWFPYWGQGTLVTVSSASTKGPSVFPLAPCSRSTSESTAALGCLVKDYFPEPVTVSWNSGALTSGVHTFPAVLQSSGLYSLSSVVTVPSSNFGTQTYTCNVDHKPSNTKVDKTVERKCCVECPPCPAPPVAPSVFLFPPKPKDTLMISRTPEVTCVVVDVSHEDPEVQFNWYVDGVEVHNAKTKPREEQFNSTFRVVSVLTVVHQDWLNGKEYKCKVSNKGLPAPIEKTISKTKGQPREPQVYTLPPSREEMTKNQVSLTCLVKGFYPSDIAVEWESNGQPENNYKTTPPMLDSDGSFFLYSKLTVDKSRWQQGNVFSCSVMHEALHNHYTQKSLSLSPGK
light: NIQMTQSPSSLSASVGDRVTITCKAGQNVNNYLAWYQQKPGKAPKVLIFNANSLQTGVPSRFSGSGSGTDFTLTISSLQPEDFATYYCQQYNSWPTFGGGTKVEIKRTVAAPSVFIFPPSDEQLKSGTASVVCLLNNFYPREAKVQWKVDNALQSGNSQESVTEQDSKDSTYSLSSTLTLSKADYEKHKVYACEVTHQGLSSPVTKSFNRGECGGGGSGGGGSGGGGSGGGGSQVQLVQSGAEVKKPGASVKVSCKASGYTFAGFEMHWVRQAPGQGLEWMGAIDPKTGGTDYNQKFKDRVTMTRDTSISTAYMELSRLRSDDTAVYYCARDLGYFDVWGQGTLVTVSSGGGGSGGGGSGGGGSGGGGSDIQMTQSPSSLSASVGDRVTITCRASQDIRSNLNWYQQKPGGAVKLLIYYTSRLHSGVPSRFSGSGSGTDYTLTISSLQPEDFATYFCQQSEKLPRTFGGGTKVEIR
notes: Anti-PD-1/CD137: Ly516 heavy chain; Ly516 light chain fused to Ly1630 scFv (VH-VL)
B2: Ly459 (bispecific antibody, human IgG1, kappa)
heavy: QVTLKESGPALVKPTQTLTLTCTFSGFSLSTSGTCVSWIRQPPGKALEWLATICWEDSKGYNPSLKSRLTISKDTSKNQAVLTMTNMDPVDTATYYCARREDSGYFWFPYWGQGTLVTVSSASTKGPSVFPLAPSSKSTSGGTAALGCLVKDYFPEPVTVSWNSGALTSGVHTFPAVLQSSGLYSLSSVVTVPSSSLGTQTYICNVNHKPSNTKVDKKVEPKSCDKTHTCPPCPAPELLGPSVFLFPPKPKDTLMISRTPEVTCVVVDVSHEDPEVKFNWYVDGVEVHNAKTKPREEQYNSTYRVVSVLTVLHQDWLNGKEYKCKVSNKALPAPIEKTISKAKGQPREPQVYTLPPSREEMTKNQVSLTCLVKGFYPSDIAVEWESNGQPENNYKTTPPVLDSDGSFFLYSKLTVDKSRWQQGNVFSCSVMHEALHNHYTQKSLSLSPGK
light: B1 light
notes: as for B1
B3: Ly457 (bispecific antibody, human IgG1, kappa)
heavy: QVTLKESGPALVKPTQTLTLTCTFSGFSLSTSGTCVSWIRQPPGKALEWLATICWEDSKGYNPSLKSRLTISKDTSKNQAVLTMTNMDPVDTATYYCARREDSGYFWFPYWGQGTLVTVSSASTKGPSVFPLAPSSKSTSGGTAALGCLVKDYFPEPVTVSWNSGALTSGVHTFPAVLQSSGLYSLSSVVTVPSSSLGTQTYICNVNHKPSNTKVDKKVEPKSCDKTHTCPPCPAPELLGPSVFLFPPKPKDTLMISRTPEVTCVVVDVSHEDPEVKFNWYVDGVEVHNAKTKPREEQYNSTYRVVSVLTVLHQDWLNGKEYKCKVSNKALPAPIEKTISKAKGQPREPQVYTLPPSREEMTKNQVSLTCLVKGFYPSDIAVEWESNGQPENNYKTTPPVLDSDGSFFLYSKLTVDKSRWQQGNVFSCSVMHEALHNHYTQKSLSLSPGGGGGSGGGGSGGGGSGGGGSQVQLVQSGAEVKKPGASVKVSCKASGYTFAGFEMHWVRQAPGQGLEWMGAIDPKTGGTDYNQKFKDRVTMTRDTSISTAYMELSRLRSDDTAVYYCARDLGYFDVWGQGTLVTVSSGGGGSGGGGSGGGGSGGGGSDIQMTQSPSSLSASVGDRVTITCRASQDIRSNLNWYQQKPGGAVKLLIYYTSRLHSGVPSRFSGSGSGTDYTLTISSLQPEDFATYFCQQSEKLPRTFGGGTKVEIR
light: NIQMTQSPSSLSASVGDRVTITCKAGQNVNNYLAWYQQKPGKAPKVLIFNANSLQTGVPSRFSGSGSGTDFTLTISSLQPEDFATYYCQQYNSWPTFGGGTKVEIKRTVAAPSVFIFPPSDEQLKSGTASVVCLLNNFYPREAKVQWKVDNALQSGNSQESVTEQDSKDSTYSLSSTLTLSKADYEKHKVYACEVTHQGLSSPVTKSFNRGEC
notes: Anti-PD-1/CD137: Ly516 heavy chain fused to Ly1630 scFv (VH-VL); Ly516 light chain
B4: Ly458 (bispecific antibody, human IgG1, kappa)
heavy: B2 heavy
light: NIQMTQSPSSLSASVGDRVTITCKAGQNVNNYLAWYQQKPGKAPKVLIFNANSLQTGVPSRFSGSGSGTDFTLTISSLQPEDFATYYCQQYNSWPTFGGGTKVEIKRTVAAPSVFIFPPSDEQLKSGTASVVCLLNNFYPREAKVQWKVDNALQSGNSQESVTEQDSKDSTYSLSSTLTLSKADYEKHKVYACEVTHQGLSSPVTKSFNRGECGGGGSGGGGSGGGGSGGGGSDIQMTQSPSSLSASVGDRVTITCRASQDIRSNLNWYQQKPGGAVKLLIYYTSRLHSGVPSRFSGSGSGTDYTLTISSLQPEDFATYFCQQSEKLPRTFGGGTKVEIRGGGGSGGGGSGGGGSGGGGSQVQLVQSGAEVKKPGASVKVSCKASGYTFAGFEMHWVRQAPGQGLEWMGAIDPKTGGTDYNQKFKDRVTMTRDTSISTAYMELSRLRSDDTAVYYCARDLGYFDVWGQGTLVTVSS
notes: Anti-PD-1/CD137: Ly516 heavy chain; Ly516 light chain fused to Ly1630 scFv (VL-VH)
B5: Ly740 (bispecific antibody, human IgG1, kappa)
heavy: QVQLVQSGAEVKKPGASVKVSCKASGYTFAGFEMHWVRQAPGQGLEWMGAIDPKTGGTDYNQKFKDRVTMTRDTSISTAYMELSRLRSDDTAVYYCARDLGYFDVWGQGTLVTVSSASTKGPSVFPLAPSSKSTSGGTAALGCLVKDYFPEPVTVSWNSGALTSGVHTFPAVLQSSGLYSLSSVVTVPSSSLGTQTYICNVNHKPSNTKVDKKVEPKSCDKTHTCPPCPAPELLGPSVFLFPPKPKDTLMISRTPEVTCVVVDVSHEDPEVKFNWYVDGVEVHNAKTKPREEQYNSTYRVVSVLTVLHQDWLNGKEYKCKVSNKALPAPIEKTISKAKGQPREPQVYTLPPSREEMTKNQVSLTCLVKGFYPSDIAVEWESNGQPENNYKTTPPVLDSDGSFFLYSKLTVDKSRWQQGNVFSCSVMHEALHNHYTQKSLSLSPGK
light: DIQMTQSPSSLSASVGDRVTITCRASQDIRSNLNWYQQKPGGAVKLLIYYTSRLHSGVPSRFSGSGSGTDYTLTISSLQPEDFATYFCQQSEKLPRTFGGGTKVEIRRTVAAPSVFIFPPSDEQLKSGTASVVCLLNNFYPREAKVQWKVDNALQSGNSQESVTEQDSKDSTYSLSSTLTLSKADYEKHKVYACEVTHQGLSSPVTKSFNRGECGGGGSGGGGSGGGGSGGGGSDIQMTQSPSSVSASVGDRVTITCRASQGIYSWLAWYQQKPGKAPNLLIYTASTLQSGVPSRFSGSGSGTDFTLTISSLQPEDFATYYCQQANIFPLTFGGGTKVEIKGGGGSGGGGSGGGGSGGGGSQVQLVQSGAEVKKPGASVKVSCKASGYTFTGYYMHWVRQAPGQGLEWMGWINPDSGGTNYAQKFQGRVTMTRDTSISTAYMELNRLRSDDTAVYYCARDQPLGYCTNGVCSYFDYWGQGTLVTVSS
notes: Anti-CD40/CD137: Ly1630 heavy chain; Ly1630 light chain fused to Ly253 scFv (VL-VH)
B6: Ly741 (bispecific antibody, human IgG1, kappa)
heavy: B5 heavy
light: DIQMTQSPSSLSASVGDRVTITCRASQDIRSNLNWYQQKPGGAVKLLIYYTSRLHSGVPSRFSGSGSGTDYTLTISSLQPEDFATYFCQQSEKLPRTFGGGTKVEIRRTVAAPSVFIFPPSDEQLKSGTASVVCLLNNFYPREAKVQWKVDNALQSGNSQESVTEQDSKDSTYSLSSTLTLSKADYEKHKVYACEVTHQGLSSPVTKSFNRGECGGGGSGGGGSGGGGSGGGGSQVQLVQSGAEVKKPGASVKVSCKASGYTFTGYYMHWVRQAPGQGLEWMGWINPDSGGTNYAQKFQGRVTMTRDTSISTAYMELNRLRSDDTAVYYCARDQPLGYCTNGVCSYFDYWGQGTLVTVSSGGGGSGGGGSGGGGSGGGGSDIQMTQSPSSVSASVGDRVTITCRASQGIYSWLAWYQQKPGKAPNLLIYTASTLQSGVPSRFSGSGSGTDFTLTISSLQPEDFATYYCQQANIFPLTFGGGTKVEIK
notes: Anti-CD40/CD137: Ly1630 heavy chain; Ly1630 light chain fused to Ly253 scFv (VH-VL)

T4 sequence (Q15116 25-288): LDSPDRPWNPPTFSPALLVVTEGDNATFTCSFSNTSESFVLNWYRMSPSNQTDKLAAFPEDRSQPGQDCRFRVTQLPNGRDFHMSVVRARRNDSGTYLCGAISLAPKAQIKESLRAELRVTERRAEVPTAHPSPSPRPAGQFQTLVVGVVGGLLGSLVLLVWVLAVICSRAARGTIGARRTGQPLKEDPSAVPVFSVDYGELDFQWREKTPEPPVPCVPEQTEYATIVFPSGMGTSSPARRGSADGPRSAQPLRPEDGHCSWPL

The first experiment deals with T1, human CD137 expressed on cells (human, UniProt Q07011 24-255).
T1 construct: whole, on cells; also called 4-1BB; TNFRSF9
T1 sequence (Q07011 24-255): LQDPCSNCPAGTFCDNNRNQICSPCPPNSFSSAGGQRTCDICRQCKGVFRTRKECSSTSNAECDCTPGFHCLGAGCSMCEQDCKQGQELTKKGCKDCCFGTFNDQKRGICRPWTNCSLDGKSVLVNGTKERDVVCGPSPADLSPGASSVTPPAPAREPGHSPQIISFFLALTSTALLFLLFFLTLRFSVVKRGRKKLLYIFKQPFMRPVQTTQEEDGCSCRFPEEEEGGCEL
Put plainly: flow cytometry (FACS), MFI, CHO cells expressing human CD137. The procedure:
(§1) Exemplary anti-PD-1/CD137 bi-specific antibodies were analyzed by FACS for their binding properties to human PD-1 and/or human CD137 expressed on CHO cells. Briefly, cultured cells were harvested, counted and cell viability was evaluated using the Trypan Blue exclusion method. Viable cells were then adjusted to 2×10⁶ cells per mL in PBS containing 2% BSA. 100 μL of this cell suspension were further aliquoted per well into a V-bottom 96-well plate. […] After incubation for 2 hours at 4° C., cells were centrifuged (3 min, 1000× g), washed with 250 μL/well BSA-containing FACS Stain Buffer, resuspended and incubated for an additional 1 hour at 4° C. with 100 μL/well fluorochrome-conjugated anti-IgG antibody for detection of the bisepecific antibody. Cells were then washed with 250 μL/well BSA-containing FACS Stain Buffer, resuspended in 100 μL/well FACS Stain Buffer, acquired and analyzed using a FACS machine. Binding of the bispecific antibodies to human PD-1 or human CD137 expressing CHO cells were evaluated and the mean fluorescence intensity is plotted in histograms or dot plots.
(In flow cytometry, cells or beads pass a laser one at a time.)
B1: the “EC50 (read off the curve)” value is roughly 0.2 µg/mL.

For the molecule B2, the half-maximal effective concentration (EC50 (read off the curve)) was roughly 0.2 µg/mL.

With B3, the “EC50 (read off the curve)” value was roughly 0.2 µg/mL.

Regarding B4, the “EC50 (read off the curve)” value was roughly 0.2 µg/mL.

The next experiment has as its target T2, human CD137 ECD protein (His tag) (human, UniProt Q07011 24-186).
T2 construct: extracellular domain; also called recombinant human CD137; not shown: His tag
Kind of experiment: bridging ELISA: human CD137 ECD (His tag) coated, antibody titrated, then human PD-1 ECD (mouse IgG2a Fc tag), HRP anti-mouse IgG2a Fc; A450-A620. The procedure:
Exemplary anti-PD-1/CD137 bi-specific antibodies were analyzed by ELISA for their simultaneous binding to recombinant human PD-1 and human CD137. Briefly, human CD137 ECD protein (His tag) was diluted and coated onto an ELISA plate with a volume of 100 μL/well by incubation at 4° C. overnight. The next day, the plate was blocked with PBST-BSA buffer, then serially diluted samples of anti-PD-1/CD137 bi-specific antibodies were pipetted into appropriate wells at 50 μL/well, and the plate was incubated for 1 hour followed by washing. The extracellular domain (ECD) of human PD-1 protein (mouse IgG2a Fc tag) was added into the plate at 50 μL/well. After 1-hour incubation at room temperature, HRP-conjugated anti-Mouse IgG, Fc G2a specific antibody was added into the plate at 100 μL/well. The plate was incubated for 1 hour at room temperature followed by washing. TMB substrate solution was added at 100 μL/well and the color development was stopped by adding 100 uL/well Stop Solution (2N H₂SO₄). Absorbance at 450 nm and 620 nm was read by Tecan F200 Pro plate reader. GraphPad 7.0, “[Agonist] vs. response—Variable slope (four parameters)” was used to plot the binding data and calculate binding EC50 values.
(In general: In an ELISA, binding on a coated surface is turned into a signal by an enzyme label.)
With B1, the “EC50 (read off the curve)” value is roughly 0.03 µg/mL.

On to B2, for which the “EC50 (read off the curve)” value was roughly 0.02 µg/mL.

As to B3, the “EC50 (read off the curve)” value was roughly 0.02 µg/mL.

As to B4, the “EC50 (read off the curve)” value was roughly 0.02 µg/mL.

For the next experiment, the target named is T3, human CD40 expressed on CHO cells (human, UniProt P25942 21-277).
T3 construct: whole, on cells
T3 sequence (P25942 21-277): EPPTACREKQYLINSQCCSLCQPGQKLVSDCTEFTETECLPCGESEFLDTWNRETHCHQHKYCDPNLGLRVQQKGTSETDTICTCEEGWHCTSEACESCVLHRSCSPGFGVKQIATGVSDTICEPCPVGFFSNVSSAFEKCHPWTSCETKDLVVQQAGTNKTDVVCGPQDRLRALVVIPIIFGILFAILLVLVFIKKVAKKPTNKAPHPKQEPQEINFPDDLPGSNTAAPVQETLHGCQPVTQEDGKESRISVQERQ
Put plainly: FACS on CHO cells expressing human CD40 (MFI). How it is done:
as §1, with “Anti-CD40/CD137” for “Exemplary anti-PD-1/CD137”, “CD40” for “PD-1”, “1000×g),” for “1000× g),”
Consider B5, for which the binding result is on record as “binds”.

Take B6: the binding result is listed as “binds”.

The target in another experiment is T1, human CD137 expressed on cells. Put plainly: FACS on CHO cells expressing human CD137 (MFI). How it is done: as §1, with “Anti-CD40/CD137” for “Exemplary anti-PD-1/CD137”, “CD40” for “PD-1”, “1000×g),” for “1000× g),”
Take B5: the “EC50 (read off the curve)” value was roughly 0.04 µg/mL.

On to B6, for which the “EC50 (read off the curve)” value is roughly 0.04 µg/mL.

Another experiment concerns the target T4, human PD-1 expressed on cells (human, UniProt Q15116 25-288).
T4 construct: whole, on cells; also called human PD-1 over-expressed on the CHO cells; Jurkat/NFkB-Luci/PD-1 cells
Kind of experiment: flow cytometry (FACS), MFI, CHO cells expressing human PD-1. How it is done:
as §1
For the molecule B1, the “EC50 (read off the curve)” value was roughly 0.1 µg/mL.

With B2, the “EC50 (read off the curve)” value was roughly 0.2 µg/mL.

With B3, the “EC50 (read off the curve)” value is roughly 0.2 µg/mL.

For B4, the “EC50 (read off the curve)” value is roughly 0.2 µg/mL.

For orientation: EC50 (read off the curve) means the concentration that produces a half-maximal response.

These data come from patent US20230406950A1 (LYVGEN BIOPHARMA, published 2023).
